From PMC9907207 (Nature Communications, 2023)

Legend:
Experiment in all cases: BLI
Settings in all cases: both partners purified
[1] = biological target: bat RaTG12-CoV RBD (Bat coronavirus RaTG13 (printed as …, UniProt A0ABF7PLN6))
[2] = biological target: SARS-CoV-1 RBD (SARS-CoV (SARS-CoV-1), isolate not …, UniProt P59594)
[3] = biological target: T1, SARS-CoV-2 RBD (residues 319-541), ancestral strain (SARS-CoV-2, UniProt P0DTC2)
T1 construct: source: Expi293, purified (Talon resin)

Measured: binding result

B1: GAR03, human IgG1 monoclonal antibody (antibody, V domains shown)
VH: QVQLVQSGAEVKKPGASVKVSCKASGYTFSSYDINWVRQAPGQGLEWMGWMSPNSGNTGYAQKFQGRVTMTRSTSMSTAYMELSSLRSEDTAVYFCARMSSSLTNYLDYWGQGTLVTVSS
VL: SYVLTQPPSVAVAPGQTARIRCGENDIGSKNVHWYQQKSGQAPVLVVYDDSDRPSGIPERFSGSNSGNTATLTISRVEAGDEADYYCQVWDSTGDHPDVVFGGGTKLTVL
notes: source: ExpiCHO, purified (Protein G resin)
binds: all assays above
